T1: Kae1‐Pcc1 subcomplex (2Kae1:2Pcc1), co-expressed in E. coli (Saccharolobus islandicus REY15A, UniProt F0NFC9 1-331; F0NF65 1-91)
T1 construct: Kae1 of Saccharolobus islandicus REY15A, no tag; Pcc1 of Saccharolobus islandicus REY15A, encoded by SiRe_1278; The preformed complex (chains as m11 and m16) to which Pcc1-like was added; after addition the product is 1:1:1; also called 2Kae1:2Pcc1 subcomplex; Kae1‐Pcc1‐Pcc1‐Kae1; source: E. coli BL21(DE3)-Codon plus-RIL, pRSF-Duet1, no-tagged SisKae1 co-expressed with His-tagged SisPcc1; …
T1 sequence (looked up) 1: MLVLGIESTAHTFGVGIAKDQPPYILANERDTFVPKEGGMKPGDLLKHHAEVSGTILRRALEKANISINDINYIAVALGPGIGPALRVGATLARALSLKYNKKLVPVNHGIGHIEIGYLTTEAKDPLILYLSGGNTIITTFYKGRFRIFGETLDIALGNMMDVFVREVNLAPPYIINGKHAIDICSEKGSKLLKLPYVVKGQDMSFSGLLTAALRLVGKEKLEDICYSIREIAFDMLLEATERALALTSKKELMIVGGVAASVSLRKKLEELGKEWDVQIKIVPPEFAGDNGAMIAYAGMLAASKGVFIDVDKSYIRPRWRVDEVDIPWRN
T1 sequence (looked up) 2: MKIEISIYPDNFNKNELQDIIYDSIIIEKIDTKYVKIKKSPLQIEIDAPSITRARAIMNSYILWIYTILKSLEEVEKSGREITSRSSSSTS

T2: His-tagged SisPcc1 co-expressed with no-tagged SisKae1 in E. coli (Saccharolobus islandicus REY15A, UniProt F0NF65 1-91)
T2 construct: Pcc1 of Saccharolobus islandicus REY15A, encoded by SiRe_1278; Pcc1 is insoluble when expressed alone in E. coli; also called His‐Pcc1; source: E. coli BL21(DE3)-Codon plus-RIL, pRSF-Duet1, co-expressed with no-tagged SisKae1; pulled down and co-purified (Ni-NTA, HiTrap Q FF, Superdex 200)
T2 sequence (looked up): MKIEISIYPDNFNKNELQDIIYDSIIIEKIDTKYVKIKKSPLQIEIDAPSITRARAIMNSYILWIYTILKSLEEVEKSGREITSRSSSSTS


Tests used:
[1] = target: T1, Kae1‐Pcc1 subcomplex (2Kae1:2Pcc1), …; test: SEC; 1.5-fold Pcc1-like added to the 2Kae1:2Pcc1 subcomplex, 60°C for 30 min before loading; Superdex 200 Increase 10/300; 200 mM NaCl, 50 mM Tris-HCl pH 8.0, 5% glycerol; conditions: both partners purified
[2] = target: SisKae1 mixed in five-fold excess with SisPcc1-like for SEC (Saccharolobus islandicus REY15A); test: SEC; Kae1 in five-fold excess: 6 μM SisPcc1-like mixed with 30 μM SisKae1, 60°C for 30 min before loading; Superdex 200 Increase 10/300; 200 mM NaCl, 50 mM Tris-HCl pH 8.0, 5% glycerol
[3] = target: Flag-tagged SisKae1 co-expressed with His-tagged SisPcc1-like in E. coli (Saccharolobus islandicus REY15A); test: SEC; co-expressed Kae1/Pcc1-like, Pcc1-like about 10-fold in excess of Kae1; Superdex 200 Increase 10/300; 200 mM NaCl, 50 mM Tris-HCl pH 8.0, 5% glycerol
[4] = target: T2, His-tagged SisPcc1 co-expressed with …; test: SEC; co-expressed Kae1/Pcc1 subcomplex; Superdex 200 Increase 10/300; 200 mM NaCl, 50 mM Tris-HCl pH 8.0, 5% glycerol; masses from protein standards; conditions: both partners purified

Binder | stoichiometry N [1] | stoichiometry N (Pcc1-like per Kae1) [2] | stoichiometry N (Pcc1-like per Kae1) [3] | stoichiometry N [4]
His-tagged SisPcc1‐like from E. coli (natural protein, Saccharolobus islandicus REY15A, UniProt F0NIH8 1-81, looked up, Pcc1-like (Gon7-like) of Saccharolobus islandicus REY15A, encoded by SiRe_1701; also called His‐SisPcc1‐like; source: E. coli BL21(DE3)-Codon plus-RIL, pRSF-Duet1 (alone, or co-expressed with Flag-tagged SisKae1 or SisPcc1); purified (Ni-NTA, HiTrap Q FF, Superdex 200)) MIELRILSEHEDAELIIRSLNVDNVNLPEGMSIQTKVEGKELEIVIKMRITKPNDLMTVRNTADEILAHIKALQSSFDAIS | 1 Kae1:Pcc1:Pcc1-like 1:1:1 | 1 | 2 | 
No-tagged SisKae1 from E. coli (natural protein, Saccharolobus islandicus REY15A, UniProt F0NFC9 1-331, looked up, Kae1 of Saccharolobus islandicus REY15A, no tag; Two vectors (pET15b alone; pRSF-Duet1 with His-Pcc1) give the same untagged protein; source: E. coli BL21(DE3)-Codon plus-RIL; alone (pET15b), purified; also co-expressed with His-tagged SisPcc1 (pRSF-Duet1), pulled down and co-purified) MLVLGIESTAHTFGVGIAKDQPPYILANERDTFVPKEGGMKPGDLLKHHAEVSGTILRRALEKANISINDINYIAVALGPGIGPALRVGATLARALSLKYNKKLVPVNHGIGHIEIGYLTTEAKDPLILYLSGGNTIITTFYKGRFRIFGETLDIALGNMMDVFVREVNLAPPYIINGKHAIDICSEKGSKLLKLPYVVKGQDMSFSGLLTAALRLVGKEKLEDICYSIREIAFDMLLEATERALALTSKKELMIVGGVAASVSLRKKLEELGKEWDVQIKIVPPEFAGDNGAMIAYAGMLAASKGVFIDVDKSYIRPRWRVDEVDIPWRN |  |  |  | 1 Kae1 per Pcc1 (printed as 2:2)

From paper PMC10989989, “The archaeal KEOPS complex possesses a functional Gon7 homolog and has an essential function independent of the cellular t^6A modification level” (mLife, 2023)
